Measurements published in patent publication US20180030090A1 (AGENCY FOR SCIENCE TECHNOLOGY AND RESEARCH, published 2018).
Bridges are numbered along the chain shown (N, C = ends). [ ]: non-standard residue; d: D form. R8 = C=CCCCCCC[C@@](C)(N)C(=O)O; S5 = C=CCCC[C@](C)(N)C(=O)O; Ahx = NCCCCCC(=O)O

What was measured:
[1] = biological target: Mdm2 in murine T22 cells (murine, UniProt P23804 1-489, limits assumed); assay: cell-based or functional assay
[2] = biological target: T1, Mdm2 (1-125) (UniProt Q00987 1-125); assay: competitive fluorescence anisotropy, displacement of FAM-labelled 12-1 peptide from Mdm2 (1-125); apparent Kd
T1 construct: range 1-125; also called N-terminal domain of Mdm2; Mdm2 (1 to 125)
Procedure: All titrations were carried out in triplicate.

Sequence of Mdm2 in murine T22 cells (P23804 whole entry): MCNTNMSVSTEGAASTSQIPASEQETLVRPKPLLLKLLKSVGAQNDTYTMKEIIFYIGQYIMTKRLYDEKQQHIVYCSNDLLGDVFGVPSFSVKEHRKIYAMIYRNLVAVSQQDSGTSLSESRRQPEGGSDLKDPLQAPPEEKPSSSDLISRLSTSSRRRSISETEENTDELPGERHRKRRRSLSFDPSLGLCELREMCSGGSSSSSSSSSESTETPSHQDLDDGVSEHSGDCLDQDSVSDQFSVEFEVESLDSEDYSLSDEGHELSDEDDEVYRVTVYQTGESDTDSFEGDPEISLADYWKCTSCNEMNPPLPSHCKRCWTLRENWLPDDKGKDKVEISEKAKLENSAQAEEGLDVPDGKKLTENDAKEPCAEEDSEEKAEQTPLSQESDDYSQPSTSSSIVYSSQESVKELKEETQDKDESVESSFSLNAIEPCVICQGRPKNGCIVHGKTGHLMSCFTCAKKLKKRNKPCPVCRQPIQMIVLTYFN
T1 sequence (Q00987 1-125 limits assumed): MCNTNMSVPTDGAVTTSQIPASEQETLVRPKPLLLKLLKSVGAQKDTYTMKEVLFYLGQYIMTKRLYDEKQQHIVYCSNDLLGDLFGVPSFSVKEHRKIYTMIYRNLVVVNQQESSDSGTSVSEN

Ac-TSF[R8]EYWALL[S5]-NH2 (staple 4-11) [sMTide-02 (capped), Ac-TSFX8EYWALLS5-NH2]
T22 IC50 (0% µM), T22 p53 reporter assay without serum [1]: 2.75 µM
T22 Ic50 (10% µM), T22 p53 reporter assay with 10% fetal calf serum [1]: 17.9 µM

Ac-KK[Ahx]TSF[R8]EYWALL[S5]ENF-NH2 (staple 7-14) [YS-07 (capped), Ac-KK-Ahx-TSFX8EYWALLS5ENF-NH2]
Kd [2]: 24.4 nM
T22 IC50 (0% µM), T22 p53 reporter assay without serum [1]: ~0.78 µM
T22 Ic50 (10% µM), T22 p53 reporter assay with 10% fetal calf serum [1]: 9.95 µM
